{
  "source": "paper PMC5983026",
  "about": "“Intraring allostery controls the function and assembly of a hetero-oligomeric class II chaperonin” (The FASEB Journal, 2018)",
  "molecules": {"B1": {"name": "Ta thermosome α8β8 (Thermoplasma acidophilum DSM 1728; P48424:D94A) (protein)", "chain 1": "MMTGQVPILVLKEGTQREQGKNAQRNNIEAAKAIADAVRTTLGPKGMDKMLVDSIGDIIISNDGATILKEMDVEHPTAKMIVEVSKAQDTAVGAGTTTAVVLSGELLKQAETLLDQGVHPTVISNGYRLAVNEARKIIDEIAEKSTDDATLRKIALTALSGKNTGLSNDFLADLVVKAVNAVAEVRDGKTIVDTANIKVDKKNGGSVNDTQFISGIVIDKEKVHSKMPDVVKNAKIALIDSALEIKKTEIEAKVQISDPSKIQDFLNQETNTFKQMVEKIKKSGANVVLCQKGIDDVAQHYLAKEGIYAVRRVKKSDMEKLAKATGAKIVTDLDDLTPSVLGEAETVEERKIGDDRMTFVMGCKNPKAVSILIRGGTDHVVSEVERALNDAIRVVAITKEDGKFLWGGGAVEAELAMRLAKYANSVGGREQLAIEAFAKALEIIPRTLAENAGIDPINTLIKLKAEHEKGRISVGVDLDNNGVGDMKAKGVVDPLRVKTHALESAVEVATMILRIDDVIASKKSTPPSGQGGQGQGMPGGGMPEY", "chain 2": "MIAGQPIFILKEGTKRESGKDAMKENIEAAIAISNSVRSSLGPRGMDKMLVDSLGDIVITNDGVTILKEMDVEHPAAKMMVEVSKTQDSFVGDGTTTAVIIAGGLLQQAQGLINQNVHPTVISEGYRMASEEAKRVIDEISTKIGADEKALLLKMAQTSLNSKSASVAKDKLAEISYEAVKSVAELRDGKYYVDFDNIQVVKKQGGAIDDTQLINGIIVDKEKVHPGMPDVVKDAKIALLDAPLEIKKPEFDTNLRIEDPSMIQKFLAQEENMLREMVDKIKSVGANVVITQKGIDDMAQHYLSRAGIYAVRRVKKSDMDKLAKATGASIVSTIDEISSSDLGTAERVEQVKVGEDYMTFVTGCKNPKAVSILVRGETEHVVDEMERSITDSLHVVASALEDGAYAAGGGATAAEIAFRLRSYAQKIGGRQQLAIEKFADAIEEIPRALAENAGLDPIDILLKLRAEHAKGNKTYGINVFTGEIEDMVKNGVIEPIRVGKQAIESATEAAIMILRIDDVIATKSSSSSSNPPKSGSSSESSED", "notes": "recombinant co-expression in E. coli BL21(DE3) Codon Plus-RIL, construct aK144HTTherm, intraloop His6-tag in each alpha subunit (kept), hexadecamer isolated on Superose 6, about 1 MDa"}, "B2": {"name": "Ta thermosome α8β8 (Thermoplasma acidophilum DSM 1728; P48425:D93K) (protein)", "chain 1": "B1 chain 1 with A94D", "chain 2": "B1 chain 2 with D93K", "notes": "as for B1"}, "B3": {"name": "Ta thermosome α8β8 (Thermoplasma acidophilum DSM 1728) (protein)", "chain 1": "B1 chain 1 with A94D", "chain 2": "B1 chain 2", "notes": "as for B1"}, "B4": {"name": "Thermoplasma acidophilum thermosome α subunit, wild type, with intraloop His6-tag (natural protein)", "chain": "B1 chain 1 with A94D", "notes": "Thermoplasma acidophilum thermosome α subunit, NCBI CAC12109; also called WTα; weak subunit; not shown: His6, internal (intraloop), kept"}, "B5": {"name": "Thermoplasma acidophilum thermosome α subunit T97V, with intraloop His6-tag (natural protein)", "chain": "B1 chain 1 with A94D, T97V", "notes": "Thermoplasma acidophilum thermosome α subunit, NCBI CAC12109; site-directed mutant of construct aK144HTTherm; also called T97Vα; not shown: His6, internal (intraloop), kept"}, "B6": {"name": "Thermoplasma acidophilum thermosome α subunit D94K, with intraloop His6-tag (natural protein)", "chain": "B1 chain 1 with A94K", "notes": "Thermoplasma acidophilum thermosome α subunit, NCBI CAC12109; site-directed mutant of construct aK144HTTherm; also called D94Kα; not shown: His6, internal (intraloop), kept"}, "B7": {"name": "Thermoplasma acidophilum thermosome α subunit D94E, with intraloop His6-tag (natural protein)", "chain": "B1 chain 1 with A94E", "notes": "Thermoplasma acidophilum thermosome α subunit, NCBI CAC12109; site-directed mutant of construct aK144HTTherm; also called Asp94α to a glutamate residue; not shown: His6, internal (intraloop), kept"}},
  "key": {"[1]": {"target": "T1, Ta RhaD (rhamnose dehydrogenase) (Thermoplasma acidophilum, UniProt Q9HK58)", "T1 sequence (Q9HK58 1-254)": "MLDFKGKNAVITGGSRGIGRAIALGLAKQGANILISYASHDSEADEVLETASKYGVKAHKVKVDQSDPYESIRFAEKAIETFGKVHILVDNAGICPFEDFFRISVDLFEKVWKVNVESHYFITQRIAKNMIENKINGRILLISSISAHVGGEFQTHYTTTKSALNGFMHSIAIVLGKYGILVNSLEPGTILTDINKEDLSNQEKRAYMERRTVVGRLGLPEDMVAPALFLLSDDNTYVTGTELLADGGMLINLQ", "assay": "dehydrogenase activity, NADPH absorbance at […] nm", "type": "biochemical", "conditions": "NADP+ co-substrate, 55 °C; read-out of refolding assay"}, "[2]": {"substrate": "Nc1ncnc2c1ncn2[C@@H]1O[C@H](COP(=O)(O)OP(=O)(O)OP(=O)(O)O)[C@@H](O)[C@H]1O", "assay": "steady-state ATPase, malachite green phosphate release", "type": "biochemical, Thermoplasma acidophilum", "conditions": "55 °C, pH 7.5, 25 mM Tris-HCl, 50 mM KCl, 20 mM MgCl2, 50 mM NaCl", "text": "steady-state ATPase, malachite green phosphate release on Ta thermosome α8β8"}, "[3]": {"substrate": "Nc1ncnc2c1ncn2[C@@H]1O[C@H](COP(=O)(O)OP(=O)(O)OP(=O)(O)O)[C@@H](O)[C@H]1O", "assay": "steady-state ATPase, malachite green phosphate release", "type": "biochemical, Thermoplasma acidophilum", "conditions": "single transition, 55 °C, pH 7.5, 25 mM Tris-HCl, 50 mM KCl, 20 mM MgCl2, 50 mM NaCl", "text": "steady-state ATPase, malachite green phosphate release on WTα16 (α-only thermosome)"}, "[4]": {"target": "the molecule itself", "assay": "SEC + native gel or EMSA; α (intraloop His6) and β co-expressed in E. coli; complexes purified to homogeneity as in ref. 29; integrity by Superose 6 Increase SEC (main peak ≅950 kDa) and native-PAGE 3–12% (≅1 MDa); subunit composition by Tris-Acetate SDS-PAGE (7%) of the purified proteins"}, "[5]": {"target": "the molecule itself", "assay": "SEC + native gel or EMSA; α subunit expressed in E. coli in the absence of the β; purified α16 complex; integrity by SEC and native PAGE"}, "[6]": {"target": "the molecule itself", "assay": "SEC + native gel or EMSA; α (intraloop His6) and β co-expressed in E. coli; complexes purified to homogeneity as in ref. 29; integrity by Superose 6 Increase SEC (main peak ≅950 kDa) and native-PAGE 3–12% (≅1 MDa); subunit composition by Tris-Acetate SDS-PAGE (7%) of the purified proteins", "remark": "listed apart in the source"}, "[7]": {"conditions": "single transition, hydrolysis assigned to the WT beta subunits"}, "[8]": {"conditions": "single transition, hydrolysis on the WT alpha subunits only"}},
  "note": "Where a chain is given by its changes, count along the chain named. Names may count otherwise.",
  "data": [
    {"molecule": "C[C@@H]1OC(O)[C@H](O)[C@H](O)[C@H]1O", "note": "(stereo partly drawn) [L-rhamnose]", "values": [
      {"measurement": "dehydrogenase activity, NADPH absorbance at 340 nm", "setting": "[1]", "value": "RhaD catalyzes the NADP^+-dependent oxidation of L-rhamnose"}
    ]},
    {"molecule": "B1", "values": [
      {"measurement": "Km", "setting": "[2]; [7]", "value": "82 ± 8.7", "unit": "µM"},
      {"measurement": "kcat", "setting": "[2]; [7]", "value": "2.4 ± 0.09 mol ATP/(mol active sites × min)"}
    ]},
    {"molecule": "B2", "values": [
      {"measurement": "Km", "setting": "[2]; [8]", "value": "285 ± 35", "unit": "µM"},
      {"measurement": "kcat", "setting": "[2]; [8]", "value": "1.7 ± 0.14 mol ATP/(mol active sites × min)"}
    ]},
    {"molecule": "B3", "values": [
      {"measurement": "Km", "setting": "[2]; biphasic, tight site", "value": "15 ± 1.65", "unit": "µM"},
      {"measurement": "kcat", "setting": "[2]; biphasic, tight site", "value": "2.15 ± 0.12 mol ATP/(mol active sites × min)"}
    ]},
    {"molecule": "B4", "values": [
      {"measurement": "Km", "setting": "[3]", "value": "140 ± 15.7", "unit": "µM"},
      {"measurement": "kcat", "setting": "[3]", "value": "0.33 ± 0.015 mol ATP/(mol active sites × min)"},
      {"measurement": "stoichiometry N", "setting": "[4]", "value": 16},
      {"measurement": "stoichiometry N", "setting": "[5]", "value": 16}
    ]},
    {"molecule": "B5", "values": [
      {"measurement": "stoichiometry N", "setting": "[4]", "value": 16}
    ]},
    {"molecule": "B6", "values": [
      {"measurement": "stoichiometry N", "setting": "[4]", "value": 16}
    ]},
    {"molecule": "B7", "values": [
      {"measurement": "stoichiometry N", "setting": "[6]", "value": 16}
    ]}
  ]
}
